Experimental data from doi:10.1101/466904 (bioRxiv, 2018).
Changes are numbered by the printed parent chain. Like-named read-outs stand apart in the source and are kept apart here.

Legend:
[1] = biological target: 3RJT protein Asn183Ala mutant (Alicyclobacillus acidocaldarius subsp. Acidocaldarius DSM446); test: SEC
Cph, Axe2 homologue [2] = test: dynamic light scattering
Cph, Axe2 homologue [3] = test: SEC
Pal, Axe2 homologue [4] = test: dynamic light scattering
Pal, Axe2 homologue [5] = test: SEC
Pda, Axe2 homologue [6] = test: dynamic light scattering
Pda, Axe2 homologue [7] = test: SEC
Pjd, Axe2 homologue [8] = test: dynamic light scattering
Pjd, Axe2 homologue [9] = test: SEC
Sku, Axe2 homologue [10] = test: dynamic light scattering
Sku, Axe2 homologue [11] = test: SEC
SEC [12] = biological target: the molecule itself; test: SEC
SEC [13] = biological target: the molecule itself; test: SEC; remark: listed apart in the source
SEC [14] = biological target: the molecule itself; test: SEC; remark: listed apart in the source

Work on 3RJT protein Asn183Ala mutant (enzyme) yielded a stoichiometry N [1] of 2.

Molecule Cph, Axe2 homologue (enzyme) has a stoichiometry N (Cph, Axe2 homologue [2]) of 8 and a stoichiometry N (Cph, Axe2 homologue [3]) of 8.

Molecule Pal, Axe2 homologue (enzyme) has a stoichiometry N (Pal, Axe2 homologue [4]) of 8 and a stoichiometry N (Pal, Axe2 homologue [5]) of 8.

With Pda, Axe2 homologue (enzyme) the stoichiometry N (Pda, Axe2 homologue [6]) was 8 and the stoichiometry N (Pda, Axe2 homologue [7]) was 8.

Pjd, Axe2 homologue (enzyme) was tested, and the stoichiometry N (Pjd, Axe2 homologue [8]) was 8 and the stoichiometry N (Pjd, Axe2 homologue [9]) was 8.

For Sku, Axe2 homologue (enzyme), the stoichiometry N (Sku, Axe2 homologue [10]) was 8 and the stoichiometry N (Sku, Axe2 homologue [11]) was 8.

B1: Axe2 acetyl-xylo-oligosaccharide esterase from Geobacillus stearothermophilus, wild type (enzyme)
chain: MKIGSGEKLLFIGDSITDCGRARPEGEGSFGALGTGYVAYVVGLLQAVYPELGIRVVNKGISGNTVRDLKARWEEDVIAQKPDWVSIMIGINDVWRQYDLPFMKEKHVYLDEYEATLRSLVLETKPLVKGIILMTPFYIEGNEQDPMRRTMDQYGRVVKQIAEETNSLFVDTQAAFNEVLKTLYPAALAWDRVHPSVAGHMILARAFLREIGFEWVRSR
B1 was tested, and the “stoichiometry N” value (SEC [12]) was 8.

B2: Axe2 Arg55Ala mutant (enzyme)
chain: B1 chain with R55A
In the case of B2, the “stoichiometry N” value (SEC [13]) is reported as 8.

B3: Axe2 Trp190Ile mutant (enzyme)
chain: B1 chain with W190I
With B3 the “stoichiometry N” value (SEC [12]) was 8.

B4: Axe2 Arg192Lys mutant (enzyme)
chain: B1 chain with R192K
With B4 the “stoichiometry N” value (SEC [12]) was 2.

B5: Axe2 Tyr184Phe mutant (enzyme)
chain: B1 chain with Y184F
For B5, the “stoichiometry N” value (SEC [12]) was 2.

B6: Axe2 triple mutant Tyr184Phe-Arg205Ala-Trp215Ala (enzyme)
chain: B1 chain with Y184F, R205A, W215A
In the case of B6, the “stoichiometry N” value (SEC [12]) is reported as 2.

B7: Axe2 Arg55Glu mutant (enzyme)
chain: B1 chain with R55E
B7 was tested, and the “stoichiometry N” value (SEC [14]) was 2 and the “stoichiometry N” value (SEC [13]) was 8.
